Results published in article PMC5665613.

Molecular target: Ub-aminomethylcoumarin (Ub-AMC) (UniProt P0CG47)

Chain of BAP1N (1-240), wild-type catalytic domain of BAP1 (Q92560 1-240): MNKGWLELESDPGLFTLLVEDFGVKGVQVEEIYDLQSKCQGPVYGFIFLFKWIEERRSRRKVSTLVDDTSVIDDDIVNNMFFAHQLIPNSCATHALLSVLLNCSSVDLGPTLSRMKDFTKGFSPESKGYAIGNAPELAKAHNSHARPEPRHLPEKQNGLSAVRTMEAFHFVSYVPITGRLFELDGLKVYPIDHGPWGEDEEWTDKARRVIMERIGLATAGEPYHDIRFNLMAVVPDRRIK

Km of Ub-AMC hydrolysis by BAP1N (250 pM enzyme, 100 nM-7.5 µM Ub-AMC, 25°C, double-reciprocal plot): 2.9 µM
Substance: BAP1N (1-240), wild-type catalytic domain of BAP1 (from UniProt Q92560 1-240) (domain or fragment)
